# In the supplement of paper PMC7877785:
# ± gives the uncertainty stated by the source.
# Assay: self-splicing fitness, log relative to wild type (ln ratio); higher = more splicing; Tetrahymena group I intron in knt gene, E. coli kanamycin selection, DiMSum; sequences stand for … in CUCUCU…GGAGGGAAAAGUUAUCAGGCAUGCACCUGGUAGCUAGUCUUUAAACCAAUAGAUUGCAUCGGUUUAAAAGGCAAGACCGUCAAAUUGCGGGAAAGGGGUCAACAGCCGUUCAGUACCAAGUCUCAGGGGAAACUUUGAGAUGGCCUUGCAAAGGGUAUGGUAAUAAGCUGACGGACAUGGUCCUAACCACGCAGCCAAGUCCUAAGUCAACAGAUCUUCUGUUGAUAUGGAUGCAGUUCACAGACUAAAUGUCGGUCGGGGAAGAUGUAUUCUUCUCAUAAGAUAUAGUCGGACCUCUCCUUAAUGGGAGCUAGCGGAUGAAGUGAUGCAACACUGGAGCCGCUGGGAACUAAUUUGUAUGCGAAAGUAUAUUGAUUAGUUUUGGAGUACUCGUGGUCG
# How it was run: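 DiMSum derived fitness as the error-weighted combination of fold changes across replicates, kanamycin versus no kanamycin, normalised to wild type. E. coli BL21(DE3) held the library, which randomised all eight P1ex-region intron nucleotides within the knt kanamycin-resistance gene on pET-22b(+). Six replicate transformations grew overnight at 37°C or 30°C on LB agar with or without 25 μg/mL kanamycin, also containing 100 μg/mL carbenicillin, 50 μM IPTG and 0.2% rhamnose, and pooled colonies were amplicon-sequenced on an Illumina HiSeq 2500.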
Sequence,self-splicing fitness (ln) (30 °C),self-splicing fitness (ln) (37 °C)
GGAUAGCAAUAUUACGAGUC,-2.17 ± 0.26,-1.06 ± 0.22
GGAUAGCAAUAUUACGAUGU,-0.882 ± 0.084,-0.0369 ± 0.11
GGAUAGCAAUAUUACGCAUC,–,-1.63 ± 0.38
GGAUAGCAAUAUUACGCAUU,-3.51 ± 0.32,-1.65 ± 0.22
GGAUAGCAAUAUUACGCGGU,-2.47 ± 0.33,-2.6 ± 0.38
GGAUAGCAAUAUUACGCUUA,-1.88 ± 0.18,-0.532 ± 0.15
GGAUAGCAAUAUUACGGACG,-0.899 ± 0.13,-0.693 ± 0.17
GGAUAGCAAUAUUACGGAGG,-3.06 ± 0.2,-2.77 ± 0.3
GGAUAGCAAUAUUACGGGCC,-2.56 ± 0.35,-1.65 ± 0.23
GGAUAGCAAUAUUACGGGUG,-2.79 ± 0.33,-0.239 ± 0.17
GGAUAGCAAUAUUACGGUUG,-3.53 ± 0.26,-0.953 ± 0.18
GGAUAGCAAUAUUACGUCAG,-2.87 ± 0.12,-2.12 ± 0.23
GGAUAGCAAUAUUACGUCGG,-2.62 ± 0.23,-1.86 ± 0.27
GGAUAGCAAUAUUACGUCUU,-0.966 ± 0.096,0.126 ± 0.11
GGAUAGCAAUAUUACGUUCG,-1.55 ± 0.12,-1.64 ± 0.14
GGCAAGCAAUAUUACGAACU,-1.18 ± 0.16,0.413 ± 0.14
GGCAAGCAAUAUUACGACGA,-1.37 ± 0.099,-0.167 ± 0.11
GGCAAGCAAUAUUACGAUAU,-1.29 ± 0.073,-0.406 ± 0.096
GGCAAGCAAUAUUACGAUUG,-3.03 ± 0.19,-1.64 ± 0.16
GGCAAGCAAUAUUACGCCAU,-2.4 ± 0.39,-1.39 ± 0.29
GGCAAGCAAUAUUACGCCCU,-2.53 ± 0.26,-0.495 ± 0.19
GGCAAGCAAUAUUACGGCCU,-2.74 ± 0.18,0.111 ± 0.23
GGCAAGCAAUAUUACGGGCU,-2.53 ± 0.2,-2.48 ± 0.2
GGCAAGCAAUAUUACGGGGC,-2.62 ± 0.42,-1.5 ± 0.32

Sequence,self-splicing fitness (ln) (30 °C),self-splicing fitness (ln) (37 °C)
GGCAAGCAAUAUUACGGUUA,-0.0834 ± 0.075,0.577 ± 0.074
GGCAAGCAAUAUUACGUAUU,-0.415 ± 0.06,-0.183 ± 0.074
GGCAAGCAAUAUUACGUCAG,-4.5 ± 0.34,-2.4 ± 0.26
GGCAAGCAAUAUUACGUCCA,-1.83 ± 0.22,-0.175 ± 0.18
GGCAAGCAAUAUUACGUCUU,-0.676 ± 0.066,-0.385 ± 0.071
GGCCAGCAAUAUUACGACUA,-0.921 ± 0.1,-0.322 ± 0.1
GGCCAGCAAUAUUACGAGAG,-3.27 ± 0.24,-2.52 ± 0.25
GGCCAGCAAUAUUACGCCGG,-3.21 ± 0.17,-1.99 ± 0.23
GGCCAGCAAUAUUACGCGAG,–,-2.98 ± 0.35
GGCCAGCAAUAUUACGCUCU,-0.639 ± 0.12,-0.0247 ± 0.17
GGCCAGCAAUAUUACGCUUG,-4.13 ± 0.26,-2.58 ± 0.2
GGCCAGCAAUAUUACGGAAU,-0.615 ± 0.057,-0.0748 ± 0.068
GGCCAGCAAUAUUACGGGCA,-1.06 ± 0.07,-0.314 ± 0.079
GGCCAGCAAUAUUACGGGUA,-0.772 ± 0.064,-0.783 ± 0.071
GGCCAGCAAUAUUACGGUAG,-0.883 ± 0.063,0.303 ± 0.083
GGCCAGCAAUAUUACGGUCG,-1.2 ± 0.14,0.113 ± 0.14
GGCCAGCAAUAUUACGUAGU,-2.25 ± 0.12,-2.13 ± 0.12
GGCCAGCAAUAUUACGUCCA,-1.61 ± 0.17,-0.128 ± 0.15
GGCCAGCAAUAUUACGUCGG,-3.69 ± 0.26,-1.9 ± 0.24
GGCCAGCAAUAUUACGUGAA,-1.67 ± 0.066,-0.271 ± 0.077
GGCCAGCAAUAUUACGUGUG,-1.15 ± 0.051,-0.323 ± 0.066
GGCCAGCAAUAUUACGUUCC,-1.28 ± 0.14,0.125 ± 0.18
GGCGAGCAAUAUUACGAACU,-1.3 ± 0.16,0.292 ± 0.18
